From patent EP3271384B1 (dated 2023)

Molecular target: T1, telomerase (hTERT) peptide on HLA-A*02:01 (human)
T1 peptide: RLVDDFLLV
Experiment: multimer staining

binding result: recognises
B1: TCR specific for the HLA-A2/hTERT865-873 complex (α5 and β3 chains, SEQ. ID. no. 1 and 2) (TCR, V domains shown)
Valpha: GEQVEQRPPHLSVREGDSAVIICTYTDPNSYYFFWYKQEPGAGLQLLMKVFSSTEINEGQGFTVLLNKKDKQLSLNLTAAHPGDSAVYFCAVRHDSGYNKLTFGKGTVLLVSP
Vbeta: NSKVIQTPRYLVKGQGQKAKMRCIPEKGHPVVFWYQQNKNNEFKFLINFQNQEVLQQIDMTEKRFSAECPSNSPCSLEIQSSEAGDSALYLCASSLSKGGFYEQYFGPGTRLTVL
